US20090291088A1, “THERAPEUTIC COMBINATIONS OF ANTI-IGF-1R ANTIBODIES AND OTHER COMPOUNDS” (Biogen Idec MA Inc., priority 2008, published 2009)
Where two headings read alike, the source gives them in different places.

B1: M14-C03: anti-IGF-1R antibody, allosteric blocker of IGF-1 and IGF-2 (antibody, V domains shown)
VH: EVQLLESGGGLVQPGGSLRLSCAASGFTFSKYMMSWVRQAPGKGLEWVSYISPSGGLTWYADSVKGRFTISRDNSKNTLYLQMNSLRAEDTAVYYCARDGARGYGMDVWGQGTTVTVSS
VL: DIQMTQSPATLSLSPGERATLSCRASQSVSSYLAWYQQKPGQAPRLLIYDASNRATGIPARFSGSGSGTDFTLTISSLEPEDFAVYYCQQRSNWPPEVTFGPGTKVDIK
modifications: Antibody variable heavy chain sequence; Antibody variable light chain sequence
B2: Fab M12-E01: human anti-human IGF-1R Fab from phage display library; VH SEQ ID NO:4, VL SEQ ID NO:68 (antibody, V domains shown)
VH: EVQLLESGGGLVQPGGSLRLSCAASGFTFSPYSMLWVRQAPGKGLEWVSSIGSSGGSTRYADSVKGRFTISRDNSKNTLYLQMNSLRAEDTAMYYCARVRGILHYDILIGRNLYYYYMDVWGKGTTVTVSS
VL: QYELTQPPSVSEAPRQRVTISCSGSSSNIGNNAINWYQQLPGKPPKLLIYYDDLLPSGVSDRFSGSKSGTSGSLAISGLQSEDEADYYCAAWDDNLNGVIFGGGTKLTVL
modifications: Antibody variable heavy chain sequence; Antibody variable light chain sequence
B3: 20C8.3B8: murine anti-human IGF-1R monoclonal antibody from hybridoma; VH SEQ ID NO:43, VL SEQ ID NO:103 (antibody, V domains shown)
VH: DVQLQESGPDLVKPSQSLSLTCTVTGYSITSGYSWHWIRQFPGNKLEWMGYIHYSGGTNYNPSLKSRISITRDTSKNQFFLQLNSVTTEDTATYYCARSGYGYRSAYYFDYWGQGTTVTVSS
VL: DIVLTQSPASLAVSLGQRATISCRASKSVSTSAYSYMHWYQQKPGQPPKLLIYLASNLESGVPARFSGSGSGTDFTLNIHPVEEEDAATYYCQHSRELPYTFGGGTKLEIK
modifications: Antibody variable heavy chain sequence; Antibody variable light chain sequence
B4: 20D8.24B11: murine anti-human IGF-1R monoclonal antibody from hybridoma; VH SEQ ID NO:53, VL SEQ ID NO:103 (antibody, V domains shown)
VH: DVQLQESGPDLVKPSQSLSLTCTVTGYSITSGYSWHWIRQFPGNKLEWMGYIHYSGGTNYNPSLKSRISITRDTSKNQFFLQLNSVTTEDTATYYCARSGYGYRSAYYFDYWGQGTTLTVSS
VL: DIVLTQSPASLAVSLGQRATISCRASKSVSTSAYSYMHWYQQKPGQPPKLLIYLASNLESGVPARFSGSGSGTDFTLNIHPVEEEDAATYYCQHSRELPYTFGGGTKLEIK
modifications: Antibody variable heavy chain sequence; Antibody variable light chain sequence

Columns and labels:
IGF-1R phosphorylation = biological target: T1, IGF-1R phosphorylation (Homo sapiens, UniProt P08069); test: Inhibition of IGF-1 and IGF-2 mediated IGF-1R phosphorylation in MCF-7 cells (ELISA); format: cell-based; conditions: for Inhibition of IGF-1R Phosphorylation IGF-1 / Inhibition of IGF-1R Phosphorylation IGF-2: Fabs, MCF-7; for Inhibition of IGF-1R Phosphorylation IGF-1: IGF-1 stimulated; for Inhibition of IGF-1R Phosphorylation IGF-2: IGF-2 stimulated; for Inhibition of IGF-1R.pTyr IGF-1 / Inhibition of IGF-1R.pTyr IGF-2: murine monoclonal antibodies
T1 construct: wild type IGF-1R expressed on MCF-7 tumor cells; endogenous in cells; host or cells: MCF-7
Protocol: Cell lines: IGF1R expressing human breast carcinoma cell line MCF-7 (NCI) were maintained at 37° C. and 5% CO2 in MEM eagle (ATCC) containing 10% FBS, 1× non-essential amino acids, 2 mM L-glutamine, 1 mM sodium pyruvate and 1000 U/ml penicillin and streptomycin. Cells were sub-cultured twice weekly for maintenance and assay, and used with a maximum of 12 passages.
MCF-7 cells were plated in 2 ml growth media at 2×10^5 to 4.0×10^5 cells/well in Ploy-D-Lysine coated 12 well plates (BD Biosciences, #35-6470) and cultured at 37° C., 5% CO2. At 48 hours, media removed and cells serum starved overnight at 37° C., 5% CO2 Serum free media was removed and control or test antibodies at indicated concentration were added in 350 ul of fresh serum free media and incubated for 1 hour at room temperature, or alternately at 37° C. Fabs were tested at 200 nM, 20 nM and 2 nM concentration and the mAbs were tested at 67, 6.7 and 0.67 nM. The commercial anti-IGF-1R control antibody used was αIR3 (EMD biosciences, Oncogene Research products, #D27249). […] Ligand was incubated at […] for 37° C. antibody experiments. Cells were lysed in 1× cell lysis buffer (Cell Signal Technologies, #9803) with 1 mM PMSF for 1 hour at room temperature.
Cell lysates were added to ELISA plates pre-coated with IGF-1Rp antibody (Clone 1-2, Biosource International, #AHR0361) and incubated for 2 hours. Following which plates were washed and the plate bound phosphorylated receptor was detected with the biotin labeled anti-phosphotyrosine antibody 4G10 (Catalog #16-103, Upstate Cell Signaling Solutions (Lake Placid, N.Y. (now part of Millipore, Concord, Mass. (USA)) and streptavidin-HRP (BD Pharmingen, #554066). Assay is developed by addition of TMB substrate (Kierkegaard & Perry, #50-76-00) and color stopped by addition of […] (LabChem, Cat#LC25830-1). Optical density is measured at 450 nm using a Molecular Devices plate reader and percent inhibition over the ligand control is calculated for each antibody-ligand sample.
The effect of human anti-IGF-1R antibodies on IGF-1R signaling was evaluated using MCF-7 cells (human breast adenocarcinoma cells).

[1] = biological target: T2, IGF-1R expressed on MCF-7 cells (Homo sapiens, UniProt P08069); test: Flow cytometry binding to wild type IGF-1R on MCF-7 tumor cells
T2 construct: wild type IGF-1R expressed on MCF-7 tumor cells; endogenous in cells; host or cells: MCF-7
Protocol: The ability of Fabs to bind to the wild type IGF-1R was determined by flowcytometry using MCF-7 tumor cell line.
MCF-7 cells (Human Breast Adenocarcinoma from NCI) were split 24 hours prior to the setup of the assay to obtain 70% confluent monolayer. Routinely, MCF-7 cell line was maintained within 20 passages. Cells were lifted with cell dissociation buffer (Gibco catalog #13151-014), counted, washed and adjusted to 1×10^6 cells/ml and one ml of cells were then added to each tube (12×75 mm tube Falcon catalog# 352054). Cells were pelleted and supernatant removed by centrifugation at 1200 rpm for 5 min and 100 μl of diluted antibodies were then added to the cell pellet. Purified Fabs were tested at a starting concentration of either 210 or 60 μg/ml with 1:3 dilutions in FACS buffer, down to 0.001 μg/ml. FACS buffer used throughout the assay was PBS (without Ca++/Mg++) containing 1% BSA (Sigma catalog# A-7906; Sigma-Aldrich Corp. (St. Louis, Mo., USA)) and 0.1% Sodium Azide (Sigma catalog #S2002). As a positive control IR3 a murine antibody (Ab-1; Calbiochem #GR11L) was used. Samples were allowed to incubate on ice for 1 hour and 15 minutes then were washed with 2 ml FACS buffer and centrifuged at 1200 rpm for 5 minutes at 4° C. The supernatant was aspirated and 100 μl of the secondary detection antibody was added to each corresponding tube in FACS buffer. Samples were then incubated for 30 minutes on ice, in the dark. Cells were washed as described above, then, re-suspended in […] FACS buffer per tube/sample.
Cells were stained for live cell determination with Propidium Iodide staining solution (PI for dead cell exclusion; BD Pharmingen catalog# 51-66211E or 556463; use at 1:500 final in FACS buffer). […]
Once samples have been run and geometric means determined, antibody concentration (X axis) vs. geometric mean (Y axis) was graphed to the log 10, using Graphpad Prism (Prism Graph) graphing program. […]
The binding activity of human antibodies to wild type IGF-1R expressed on tumor cells was determined by flow cytometry. […]

[2] = murine monoclonal antibodies, read-out: Binding (EC50nM) Tumor MCF-7

Molecule | Inhibition of IGF-1R Phosphorylation IGF-1 (IGF-1R phosphorylation) | Inhibition of IGF-1R Phosphorylation IGF-2 (IGF-1R phosphorylation) | EC50 ([1]; purified Fabs, read-out: FACS Binding MCF-7 EC50nM) [nM] | Inhibition of IGF-1R.pTyr IGF-1 (IGF-1R phosphorylation) | Inhibition of IGF-1R.pTyr IGF-2 (IGF-1R phosphorylation) | EC50 [1, 2] [nM]
B1 | ++ (>30%@1ug/ml) | ++ (>30%@1ug/ml) | – | – | – | –
B2 | ++ (>30%@1ug/ml) | + (>30%@10 ug/ml) | 7.4 | – | – | –
B3 | – | – | – | +++ (>30%@0.1 μg/ml) | ++ (>30%@1 μg/ml) | 1.23
B4 | – | – | – | +++ (>30%@0.1 μg/ml) | ++ (>30%@1 μg/ml) | 1.3
